This assay concerns the target PDGF-DD (active, proteolytically processed homodimer) as used in solid-phase binding and SPR (human) (UniProt Q9GZP0). As to the kind of experiment: SPR (Biacore T100), PDGF-DD immobilised on CM5 chip, NKp44 18-130-His6 in the mobile phase, steady-state fit for a 1:1 interaction. (In general: In SPR one partner is held on a chip, and binding of the other changes the refractive index at the surface.)

PDGF-DD (active, proteolytically processed homodimer) as used in solid-phase binding and SPR (human), sequence (Q9GZP0 184-370 limits assumed, form in doubt): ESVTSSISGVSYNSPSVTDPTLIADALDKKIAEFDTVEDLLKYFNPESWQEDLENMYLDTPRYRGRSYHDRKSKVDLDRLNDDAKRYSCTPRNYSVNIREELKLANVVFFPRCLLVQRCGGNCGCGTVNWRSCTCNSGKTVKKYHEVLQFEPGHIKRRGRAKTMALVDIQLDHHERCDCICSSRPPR

For “Bacterial expressed NKp44 (residues 18-130 with a C-terminal His6 tag) (from UniProt O95944 18-130) (receptor)”, the Kd (commonly the concentration at which binding is half-saturated) is 3.3 µM.

Values taken from US20200046770A1.
